Test results from paper PMC9027083 (International Journal of Molecular Sciences, 2022).

Assays:
[1] = molecular target: T1, recombinant MBP-EDIII of DENV3 (Dengue virus 3, strain …, UniProt P27915, strain); experiment: SPR; conditions: both partners purified
T1 construct: also called DENV3 EDIII; envelope protein domain III of DENV3; not shown: MBP, N-terminal, kept

[2] = molecular target: T2, recombinant MBP-EDIII of DENV1 (Dengue virus 1, strain Guiana/FGA89/1989, strain); experiment: SPR; conditions: both partners purified
T2 construct: also called DENV1 EDIII; envelope protein domain III of DENV1; not shown: MBP, N-terminal, kept

Binder | Kd [1] [nM] | koff [1] [s⁻¹] | kon [1] [M⁻¹ s⁻¹] | Kd [2] [nM] | koff [2] [s⁻¹] | kon [2] [M⁻¹ s⁻¹]
1A1D-2 Fab WT (Fab, V domains shown, also called 1A1D-2 WT) VH: EVQLQQSGAELVKPGASVKLSCTASGFNIKDTYMHWVKQRPEQGLEWIGRIDPANGYSKYDPKFQGKATITADTSSNAAYLQLSSLTSEDTAVYFCARDYEGFAYWGQGTLVTVSS VL: DIVLTQSPASLAVSLGQRATISCRASESVVRYGNSFMHWYQQKPGQPPKLLIYRASSLESGIPTRFSGSGSRTDFTLTINPVEADDVATYYCQQTNVDPWAFGGGTKLEIK | 91 | 0.00792 | 87000 | 216 | 0.00755 | 34900
1A1D-2 Fab A54E-Y105R double mutant (Fab, V domains shown) VH: EVQLQQSGAELVKPGASVKLSCTASGFNIKDTYMHWVKQRPEQGLEWIGRIDPENGYSKYDPKFQGKATITADTSSNAAYLQLSSLTSEDTAVYFCARDYEGFARWGQGTLVTVSS VL: DIVLTQSPASLAVSLGQRATISCRASESVVRYGNSFMHWYQQKPGQPPKLLIYRASSLESGIPTRFSGSGSRTDFTLTINPVEADDVATYYCQQTNVDPWAFGGGTKLEIK | 7.11 | 0.00158 | 222000 | 27.4 | 0.0012 | 43900
1A1D-2 Fab A54E.H (Fab, V domains shown) VH: EVQLQQSGAELVKPGASVKLSCTASGFNIKDTYMHWVKQRPEQGLEWIGRIDPENGYSKYDPKFQGKATITADTSSNAAYLQLSSLTSEDTAVYFCARDYEGFAYWGQGTLVTVSS VL: DIVLTQSPASLAVSLGQRATISCRASESVVRYGNSFMHWYQQKPGQPPKLLIYRASSLESGIPTRFSGSGSRTDFTLTINPVEADDVATYYCQQTNVDPWAFGGGTKLEIK | 10.3 | 0.00364 | 354000 | 140 | 0.00617 | 44300
1A1D-2 Fab Y105R.H (Fab, V domains shown) VH: EVQLQQSGAELVKPGASVKLSCTASGFNIKDTYMHWVKQRPEQGLEWIGRIDPANGYSKYDPKFQGKATITADTSSNAAYLQLSSLTSEDTAVYFCARDYEGFARWGQGTLVTVSS VL: DIVLTQSPASLAVSLGQRATISCRASESVVRYGNSFMHWYQQKPGQPPKLLIYRASSLESGIPTRFSGSGSRTDFTLTINPVEADDVATYYCQQTNVDPWAFGGGTKLEIK | 49.2 | 0.00419 | 85200 | 42.6 | 0.00185 | 43500
